The target in experiment [1] is eel luteinizing hormone receptor, wild type (eel).
In experiment [2] the target is eel luteinizing hormone receptor D576G (constitutively activating mutant) (eel).
Experiment [3] has as its target eel luteinizing hormone receptor, wild type (eel). The source holds these as a separate data set.
Experiment [4] has as its target eel luteinizing hormone receptor D576G (constitutively activating mutant) (eel). The source holds these as a separate data set.
Experiment [5] concerns the target eel luteinizing hormone receptor R476H (inactivating mutant) (eel).

Results on two substances are retold here after paper PMC10252337.

Turning to “recombinant eel luteinizing hormone, single-chain eel LHβ/α (ligand)”, the EC50 of cAMP production (HTRF) in CHO-K1 cells expressing the receptor, stimulated with rec-eel LH for 30 min is 0.177 µg/mL in experiment [1] and 0.0948 µg/mL in experiment [2]. The plateau of agonist-induced loss of cell-surface receptor (ELISA on HEK-293 cells, 0-60 min, one-phase exponential decay) in experiment [3] is 64.2 % of control; in experiment [4], 59.8 % of control; in experiment [5] it was 61.9 % of control. Moreover, the t1/2 of agonist-induced loss of cell-surface receptor (ELISA on HEK-293 cells, 0-60 min, one-phase exponential decay) in experiment [3] worked out at 0.9 min; in experiment [4], 0.6 min; in experiment [5], 0.6 min.

Take “recombinant equine chorionic gonadotropin (from UniProt P08751 21-169; P01220 25-120) (ligand)”: the figures for the plateau of agonist-induced loss of cell-surface receptor (ELISA on HEK-293 cells, 0-60 min, one-phase exponential decay) in experiment [3], in experiment [4] and in experiment [5] were 56.8 % of control, 46.3 % of control and 42.6 % of control, respectively. Besides, the figures for the t1/2 of agonist-induced loss of cell-surface receptor (ELISA on HEK-293 cells, 0-60 min, one-phase exponential decay) in experiment [3], in experiment [4] and in experiment [5] were 2.5 min, 2.1 min and 1.9 min, respectively.
